# Results as given in patent publication US7566535B2, “Enhanced oligonucleotide-mediated nucleic acid sequence alteration” (University of Delaware, priority 2002, dated 2009).
# Where “and” joins values, the source holds several entries; their conditions need not be identical. Equal values may be shown once. In the oligonucleotide strings, read from the 5' end, every base follows the letter of its sugar. An asterisk marks phosphorothioate; unmarked linkages are phosphodiester. Other units and linkages are bracketed, terminal groups are in braces. A string of capitals states the bases alone. d = 2'-deoxy (DNA)
# Tests used:
# pAURHYG(x)eGFP [1] = assay: Hygromycin gene correction in yeast LSY678 with or without trichostatin A
# pAURNeo(−)FlAsH plasmid = assay: FlAsH fluorescence assay of neomycin phosphotransferase gene correction in yeast
# [2] = tested on: mutant kanamycin gene in plasmid pK^Sm4021; assay: Gene repair of plasmid pK^Sm4021 in yeast cell-free extracts, kan^r/amp^r colony readout in E. coli DH10B
# [3] = tested on: human β-globin gene in YAC; assay: Dual targeting: second-site editing of β-globin gene in YAC, SNaPshot and sequencing; conditions: HU, TSA, RAD51 overexpression
# pAURHYG(x)eGFP [4] = assay: Strand bias of hygromycin gene correction in rad1 and rad10 yeast mutants
# CYC1 gene = CYC1 gene repair in diploid yeast strains, growth on glycerol (YPG)
# [5] = YMH51 (wild-type CYC1), 5 μg oligo
# [6] = YMH55 with PYNMRE11, 5 μg oligo
# [7] = YMH55 with PYNRAD51, 5 μg oligo
# [8] = YMH55 with PYNRAD52, 5 μg oligo
# [9] = YMH55 with PYNRAD54, 5 μg oligo
# [10] = YMH55 with PYNRAD55, 5 μg oligo
# [11] = YMH55 with pYN132 (empty vector), 5 μg oligo
# [12] = YMH55 with pYNβ (lambda beta protein expression), 5 μg oligo
molecule,measurement,setting,value
"CC(/C=C/C(=O)NO)=C\[C@@H](C)C(=O)c1ccc(N(C)C)cc1 [trichostatin A, reference compound]",increase of efficiency of gene alteration,pAURHYG(x)eGFP [1]; 50 μg/mL during the recovery period,≥ 3 fold
same,increase of efficiency of gene alteration,pAURHYG(x)eGFP [1]; 50 μg/mL for four hours prior to electroporation,up to several-fold
"KanGG: chimeric, RNA-DNA double-hairpin oligonucleotide (SEQ ID NO: 1) correcting the mutant kanamycin gene of pK^Sm4021 (nucleic acid, chimeric RNA-DNA double hairpin, segment chemistry not given here) GCUAUUCGGCUAGGACUGGGCACAAUUUUTTGTGCCCAGTCGTAGCCGAATAGCCTCTCCUUUUGGAGAG",corrected cells by green fluorescence (confocal microscopy),pAURNeo(−)FlAsH plasmid; LSY678 and LSY378,many corrected cells
same,number of cells exhibiting green fluorescence,pAURNeo(−)FlAsH plasmid; strain lacking RAD52 relative to LSY678,significant increase
same,Relative Frequency kan^r/amp^r,"[2]; 0.5 μg oligo, 1 μg plasmid, 10 μg LSY678 extract",1.89 ×10^−5
same,Relative Frequency kan^r/amp^r,"[2]; 1 μg oligo, 1 μg pK^Sm4021, no extract",0.002 ×10^−5
same,Relative Frequency kan^r/amp^r,"[2]; 1 μg oligo, 1 μg plasmid, 1 μg LSY678 extract",0.32 ×10^−5
same,Relative Frequency kan^r/amp^r,"[2]; 1 μg oligo, 1 μg plasmid, 10 μg LSY678 extract",3.66 ×10^−5 and 2.78 ×10^−5
same,Relative Frequency kan^r/amp^r,"[2]; 1 μg oligo, 1 μg plasmid, 20 μg LSY678 extract",7.601 ×10^−5
same,Relative Frequency kan^r/amp^r,"[2]; 1 μg oligo, no plasmid, 20 μg LSY678 extract",0.0 ×10^−5
same,Relative Frequency kan^r/amp^r,"[2]; 2.0 μg oligo, 1 μg plasmid, 10 μg LSY678 extract",4.005 ×10^−5
same,Relative Correction Efficiency,[2]; 10 μg extract LSY386 (Δrad52),25.7 and 26.7 and 19.9
same,Relative Correction Efficiency,[2]; 10 μg extract LSY402 (Δrad51),5.15
same,Relative Correction Efficiency,[2]; 10 μg extract LSY407 (Δrad57),2.13
same,Relative Correction Efficiency,[2]; 10 μg extract LSY678 (wild type),1.17 and 1.08 and 1.63
same,Relative Correction Efficiency,[2]; 10 μg extract LSY814 (Δmsh2),0.79
same,Relative Correction Efficiency,[2]; 10 μg extract LSY837 (Δrad59),0.35
same,Relative Correction Efficiency,[2]; 10 μg extract XS827-18C (Δrad54),1.36
same,Relative Correction Efficiency,[2]; 10 μg extract YDR076W (Δrad55),1.27
same,Relative Correction Efficiency,[2]; 10 μg extract YELO37C (Δrad23),1.04
same,level of repair below wild-type levels,[2]; LSY678 extract expressing RAD52,4 fold
same,Relative Correction Efficiency,[2]; extract LSY386•p52 (Δrad52 expressing RAD52),2.31
same,Relative Correction Efficiency,[2]; extract LSY678•p52 (wild type expressing RAD52),0.41
same,Relative Correction Efficiency,[2]; extracts LSY386 (2 μg) + LSY678 (8 μg),2.91
same,Relative Correction Efficiency,[2]; extracts LSY386 (2 μg) + YELO37C (8 μg),1.85
same,Relative Correction Efficiency,[2]; extracts LSY386 (4 μg) + LSY678 (6 μg),5.45
same,Relative Correction Efficiency,[2]; extracts LSY386 (4 μg) + YELO37C (6 μg),3.71
same,Relative Correction Efficiency,[2]; extracts LSY386 (6 μg) + LSY678 (4 μg),10.47
same,Relative Correction Efficiency,[2]; extracts LSY386 (6 μg) + YELO37C (4 μg),9.22
same,Relative Correction Efficiency,[2]; extracts LSY386 (8 μg) + LSY678 (2 μg),14.36
same,Relative Correction Efficiency,[2]; extracts LSY386 (8 μg) + YELO37C (2 μg),16.95
same,Relative Correction Efficiency,"[2]; oligo only, no plasmid, no extract",0.0
"βThal2: 71mer with three phosphorothioate linkages at 5′ and 3′ ends directing T to C in β-globin, SEQ ID NO: 28 (nucleic acid) DNA: dT*dA*dA*dCdGdGdCdAdGdAdCdTdTdCdTdCdCdAdCdAdGdGdAdGdTdCdAdGdGdTdGdCdAdCdCdGdTdGdGdTdGdTdCdTdGdTdTdTdGdAdGdGdTdTdGdCdTdAdGdTdGdAdAdCdAdCdAdG*dT*dT*dG",cells with corrected hygromycin also containing the edited β-globin gene,[3],approximately 10%
"Kan70T: non-specific, control oligonucleotide not complementary to the target sequence, SEQ ID NO: 11 (nucleic acid, listed as DNA, chemistry not given here) DNA: CATCAGAGCAGCCAATTGTCTGTTGTGCCCAGTCGTAGCCGAATAGCCTCTCCACCCAAGCGGCCGGAG",Colonies on Hygromycin,pAURHYG(x)eGFP [4]; rad1 mutant,0
same,Colonies on Hygromycin,pAURHYG(x)eGFP [4]; rad10 mutant,0
"Cyc1/70T: modified single-stranded vector targeting the transcribed strand of mutant CYC1, three phosphorothioated linkages at each terminus, SEQ ID NO: 21 (nucleic acid) DNA: dA*dG*dG*dTdGdCdTdAdCdAdCdTdTdTdTdCdAdAdGdAdCdTdAdGdAdTdGdTdCdTdAdCdAdAdTdGdCdCdAdCdAdCdCdGdTdGdGdAdAdAdAdGdGdGdTdGdGdCdCdCdAdCdAdTdAdAdG*dG*dT*dT",No. of YPG Plate Colonies,CYC1 gene; [5],lawn
same,C.E.,"CYC1 gene; YMH52, 5 μg oligo",0.17 ×10^−4
same,No. of YPG Plate Colonies,"CYC1 gene; YMH52, 5 μg oligo",57
same,C.E.,"CYC1 gene; YMH53, 5 μg oligo",0.74 ×10^−4
same,No. of YPG Plate Colonies,"CYC1 gene; YMH53, 5 μg oligo",281
same,Average C.E.,CYC1 gene; YMH53 with PYNMRE11 + PYNXRS2,.263 ×10^−5
same,Fold,CYC1 gene; YMH53 with PYNMRE11 + PYNXRS2,8.29
same,No. of YPG Plate Colonies,CYC1 gene; YMH53 with PYNMRE11 + PYNXRS2,155
same,Average C.E.,CYC1 gene; YMH53 with PYNRAD52 + PYNRAD54,.185 ×10^−5
same,Fold,CYC1 gene; YMH53 with PYNRAD52 + PYNRAD54,5.82
same,No. of YPG Plate Colonies,CYC1 gene; YMH53 with PYNRAD52 + PYNRAD54,103
same,Average C.E.,CYC1 gene; YMH53 with pYN132,0.03169 ×10^−5
same,Fold,CYC1 gene; YMH53 with pYN132,1
same,C.E.,"CYC1 gene; YMH54, 5 μg oligo",0.14 ×10^−4
same,No. of YPG Plate Colonies,"CYC1 gene; YMH54, 5 μg oligo",43
same,C.E.,"CYC1 gene; YMH55, 5 μg oligo",0.38 ×10^−4
same,No. of YPG Plate Colonies,"CYC1 gene; YMH55, 5 μg oligo",116
"Cyc1/70NT: modified single-stranded vector targeting the nontranscribed strand of mutant CYC1, three phosphorothioated linkages at each terminus, SEQ ID NO: 22 (nucleic acid) DNA: dA*dA*dC*dCdTdTdAdTdGdTdGdGdGdCdCdAdCdCdCdTdTdTdTdCdCdAdCdGdGdTdGdTdGdGdCdAdTdTdGdTdAdGdAdCdAdTdCdTdAdGdTdCdTdTdGdAdAdAdAdGdTdGdTdAdGdCdA*dC*dC*dT",No. of YPG Plate Colonies,CYC1 gene; [5],lawn
same,C.E.,"CYC1 gene; YMH52, 5 μg oligo",0.47 ×10^−4
same,No. of YPG Plate Colonies,"CYC1 gene; YMH52, 5 μg oligo",186
same,C.E.,"CYC1 gene; YMH53, 5 μg oligo",0.21 ×10^−4
same,No. of YPG Plate Colonies,"CYC1 gene; YMH53, 5 μg oligo",73
same,Average C.E.,CYC1 gene; YMH53 with PYNMRE11 + PYNXRS2,0.322 ×10^−5
same,Fold,CYC1 gene; YMH53 with PYNMRE11 + PYNXRS2,57.48
same,No. of YPG Plate Colonies,CYC1 gene; YMH53 with PYNMRE11 + PYNXRS2,178
same,Average C.E.,CYC1 gene; YMH53 with PYNRAD52 + PYNRAD54,0.179 ×10^−5
same,Fold,CYC1 gene; YMH53 with PYNRAD52 + PYNRAD54,32.01
same,No. of YPG Plate Colonies,CYC1 gene; YMH53 with PYNRAD52 + PYNRAD54,109
same,Average C.E.,CYC1 gene; YMH53 with pYN132,0.0056 ×10^−5
same,Fold,CYC1 gene; YMH53 with pYN132,1
same,C.E.,"CYC1 gene; YMH54, 5 μg oligo",0.28 ×10^−4
same,No. of YPG Plate Colonies,"CYC1 gene; YMH54, 5 μg oligo",80
same,C.E.,"CYC1 gene; YMH55, 5 μg oligo",2.99 ×10^−4
same,No. of YPG Plate Colonies,"CYC1 gene; YMH55, 5 μg oligo",895
same,Average C.E.,CYC1 gene; [6],0.04 ×10^−5
same,Fold,CYC1 gene; [6],1.1
same,No. of YPG Plate Colonies,CYC1 gene; [6],25
same,Average C.E.,CYC1 gene; [7],0.52 ×10^−5
same,Fold,CYC1 gene; [7],14.8
same,No. of YPG Plate Colonies,CYC1 gene; [7],260
same,Average C.E.,CYC1 gene; [8],0.22 ×10^−5
same,Fold,CYC1 gene; [8],6.2
same,No. of YPG Plate Colonies,CYC1 gene; [8],108
same,Average C.E.,CYC1 gene; [9],0.09 ×10^−5
same,Fold,CYC1 gene; [9],2.4
same,No. of YPG Plate Colonies,CYC1 gene; [9],42
same,Average C.E.,CYC1 gene; [10],0.78 ×10^−5
same,Fold,CYC1 gene; [10],22.2
same,No. of YPG Plate Colonies,CYC1 gene; [10],410
same,Average C.E.,"CYC1 gene; YMH55 with PYNXRS2, 5 μg oligo",0.03 ×10^−5
same,Fold,"CYC1 gene; YMH55 with PYNXRS2, 5 μg oligo",1.34
same,No. of YPG Plate Colonies,"CYC1 gene; YMH55 with PYNXRS2, 5 μg oligo",22
same,Average C.E.,CYC1 gene; [11],0.04 ×10^−5
same,Fold,CYC1 gene; [11],1
same,No. of YPG Plate Colonies,CYC1 gene; [11],19
same,Average C.E.,CYC1 gene; [12],0.32 ×10^−5
same,Fold,CYC1 gene; [12],9.1
same,No. of YPG Plate Colonies,CYC1 gene; [12],166
"beta protein: protein expressed from the bet gene of the Red recombination system of bacteriophage lambda; expressed in yeast from pYNTβ (protein, UniProt P03698 1-261, looked up) Recombination protein bet: MSTALATLAGKLAERVGMDSVDPQELITTLRQTAFKGDASDAQFIALLIVANQYGLNPWTKEIYAFPDKQNGIVPVVGVDGWSRIINENQQFDGMDFEQDNESCTCRIYRKDRNHPICVTEWMDECRREPFKTREGREITGPWQSHPKRMLRHKAMIQCARLAFGFAGIYDKDEAERIVENTAYTAERQPERDITPVNDETMQEINTLLIALDKTWDDDLLPLCSQIFRRDIRASSELTQAEAVKALGFLKQKAAEQKVAA",correction efficiency per 10^5 transformants,"CYC1 gene; beta protein expression, other experiments",0.326
